Reference: patent US20240417475A1 (AFFIMED, published 2024)
Each block holds one binder with its values, some of them ahead of it.

Columns and labels:
[1] = target: T1, human FOLR1 endogenously expressed on tumor cell lines (human, UniProt P15328 25-234); test: cell-based or functional assay
[2] = target: T1, human FOLR1 endogenously expressed on …; test: flow cytometry on HCC-827 cells, 37 C, one-site fit of MFI, mean
Experimental: (§1) Cells were collected and centrifuged at 400×g, 5 min, 4° C. Cell pellets were resuspended in FACS buffer (PBS (Invitrogen, cat.: 392-0434) containing 2% h.i. FCS (Invitrogen, cat.: 10500-064), and 0.1% sodium azide (Sigma, cat.: S8032)) at 1-5×10⁶ cells/mL. 100 μL/well of the cell suspension were transferred into U-shaped, 96-well micro plates (0.1-0.5×10⁶ cells per well), cells were pelleted at 400×g, 5 min, 4° C., and resuspended in 100 μL/well of serial dilutions of the indicated antibodies in FACS buffer. After 40-50 min incubation at 37° C., cells were washed 3-times with ice-cold FACS buffer. […] After the final incubation step, cells were washed 2-times with ice-cold FACS buffer, and the cell pellet was resuspended in 100 μL FACS buffer. Fluorescence intensities of >1×10⁴ viable cells were analyzed by flow cytometry and the median fluorescence intensity (MFI) was determined for each sample.
(§2) Equilibrium dissociation constants (KD) of antibody binding, mean and standard deviation (SD) were calculated by plotting MFI values and fitting a non-linear regression model for one-site binding to hyperbolic dose-response curves using GraphPad Prism for Windows (v9; GraphPad Software; La Jolla California USA).
(§3) Specific antibody binding capacity (SABC) as a marker for FOLR1 expression level on cells was determined on all tumor cell lines using QIFIKIT.

[3] = target: T1, human FOLR1 endogenously expressed on …; test: flow cytometry on IGROV-1 cells, 37 C, one-site fit of MFI, mean
Experimental: as §1, §2, §3

[4] = target: T1, human FOLR1 endogenously expressed on …; test: flow cytometry on OVCAR-3 cells, 37 C, one-site fit of MFI, mean
Experimental: as §1, §2, §3

[5] = target: T1, human FOLR1 endogenously expressed on …; test: flow cytometry on NCI-H2110 cells, 37 C, one-site fit of MFI, mean
Experimental: as §1, §2, §3

[6] = target: T2, human CD16A-mFc (158V) (sAg_149) (human, UniProt P08637 17-208); test: ELISA, plate coated with human CD16A-mFc (158V) (sAg_149), one-site fit, mean of 3
T2 construct: also called CD16A 158V (sAg_149); recombinant human CD16A 158V
Experimental: (§4) After incubation with the secondary antibodies, the plate was washed five times with PBST and one time with PBS. Chromogenic substrate (1:1 mixture of TMB:TMBB, SeraCare cat: 5120-0048 and 5120-0037) was added and the reaction was stopped by addition of an equal volume of 0.5 M H₂SO₄ after sufficient color development. Absorbance at 450 nm was measured in an ELISA plate reader (Sunrise Absorbance Reader 901000833, Schoeller Instruments). The absorbance values were corrected by subtracting the background of the respective secondary antibody and fitted with a one site binding function (hyperbola) using GraphPad Prism (version 9.3.1. GraphPad Software, La Jolla California USA). KD is the concentration of ligand required to reach half-maximal binding.

[7] = target: T3, human FOLR1-mFc_Avi-tag (sAg_303) (human, UniProt P15328 25-234, limits assumed); test: ELISA, plate coated with human FOLR1-mFc_Avi-tag (sAg_303), one-site fit, mean of 3
T3 construct: also called human FOLR1 (sAg_303); recombinant human FOLR1
Experimental: as §4, with “96 well ELISA plates (F96 Maxisorp Immuno Plate, Nunc, cat: 442404) were coated overnight at 4° C. with 50 μL/well of 10 μg/mL human FOLR1-mFc_Avi-tag in DPBS. After overnight incubation plates were washed three times with PBST and blocked with Candor Blocking solution for 2 h at RT under mild agitation. […] After” for “After”

[8] = target: T3, human FOLR1-mFc_Avi-tag (sAg_303); test: ELISA, plate coated with human FOLR1-mFc_Avi-tag, anti-human Fab-HRP detection, A450
Experimental: as §4, with “96 well ELISA plates (F96 Maxisorp Immuno Plate, Nunc, cat: 442404) were coated overnight at 4° C. with 50 μL/well of 10 μg/mL human FOLR1-mFc_Avi-tag in DPBS. After overnight incubation plates were washed three times with PBST and blocked with Candor Blocking solution for 2 h at RT under mild agitation. […] After” for “After”

[9] = target: T1, human FOLR1 endogenously expressed on …; test: flow cytometry on IGROV-1 cells (FOLR1 high) at 37 °C, FITC anti-human IgG detection
Experimental: as §1

[10] = target: T1, human FOLR1 endogenously expressed on …; test: flow cytometry on OVCAR-3 cells (FOLR1 medium) at 37 °C, FITC anti-human IgG detection
Experimental: as §1

[11] = target: T4, human CD16A (158F) expressed on CHO cells (cAg_34) (human, UniProt P08637 17-254); test: flow cytometry on huCD16A-transfected CHO cells (cAg_34), one-site fit of MFI, mean of 3
T4 construct: also called huCD16A-transfected CHO cells
Experimental: (§5) To analyze binding of different antibody constructs to CHO cells transfected with human CD16A (cAg_34), relative to CD16 expression by flow cytometry, 1-2×10⁵ were resuspended in 100 μL FACS buffer (PBS (Invitrogen, cat.: 14190-169) containing 2% heat-inactivated FCS (Invitrogen, cat.: 10270-106), and 0.1% sodium azide (Roth, Karlsruhe, Germany, cat.: A1430.0100)) in round-bottom 96-well microtiter plates. After washing in FACS buffer, cells were incubated in 50 μL FACS buffer without antibodies or with titrated antibodies starting at a concentration of 100 μg/mL followed by ten 5-fold serial dilutions for 30 min on ice in the dark. […] After washing, binding was measured by flow cytometry and mean fluorescence intensities (MFI) of cell samples were calculated and corrected for background staining using control cells stained with secondary antibodies only.
(§6) Equilibrium dissociation constants (KD) of antibody binding were calculated by plotting MFI values and fitting a non-linear regression model for one-site binding to hyperbolic dose-response curves using GraphPad Prism.

[12] = target: T4, human CD16A (158F) expressed on CHO …; test: flow cytometry on huCD16A-transfected CHO cells (cAg_34), one-site fit of MFI, experiment 1
Experimental: as §5, §6

[13] = target: T4, human CD16A (158F) expressed on CHO …; test: flow cytometry on huCD16A-transfected CHO cells (cAg_34), one-site fit of MFI, experiment 2
Experimental: as §5, §6

[14] = target: T4, human CD16A (158F) expressed on CHO …; test: flow cytometry on huCD16A-transfected CHO cells (cAg_34), one-site fit of MFI, experiment 3
Experimental: as §5, §6

[15] = target: T4, human CD16A (158F) expressed on CHO …; test: flow cytometry on huCD16A-transfected CHO cells, on ice, APC goat anti-human IgG detection
Experimental: as §5

T4 sequence (P08637 17-254 limits assumed): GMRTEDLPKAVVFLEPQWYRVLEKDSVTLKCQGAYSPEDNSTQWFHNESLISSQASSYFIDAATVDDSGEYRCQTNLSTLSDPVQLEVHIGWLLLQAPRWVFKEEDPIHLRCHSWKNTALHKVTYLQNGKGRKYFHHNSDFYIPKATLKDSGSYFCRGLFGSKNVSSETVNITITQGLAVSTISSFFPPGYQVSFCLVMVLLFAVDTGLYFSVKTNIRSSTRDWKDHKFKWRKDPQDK
T1 sequence (P15328 25-234): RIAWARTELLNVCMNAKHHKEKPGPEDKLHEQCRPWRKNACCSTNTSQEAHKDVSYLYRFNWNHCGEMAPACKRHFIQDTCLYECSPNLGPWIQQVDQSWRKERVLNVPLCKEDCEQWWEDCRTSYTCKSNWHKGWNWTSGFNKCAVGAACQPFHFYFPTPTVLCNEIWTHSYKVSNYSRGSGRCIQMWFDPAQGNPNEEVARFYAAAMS
T3 sequence (P15328 25-234 limits assumed): as the sequence (P15328 25-234) above
T2 sequence (P08637 17-208 F176V limits assumed): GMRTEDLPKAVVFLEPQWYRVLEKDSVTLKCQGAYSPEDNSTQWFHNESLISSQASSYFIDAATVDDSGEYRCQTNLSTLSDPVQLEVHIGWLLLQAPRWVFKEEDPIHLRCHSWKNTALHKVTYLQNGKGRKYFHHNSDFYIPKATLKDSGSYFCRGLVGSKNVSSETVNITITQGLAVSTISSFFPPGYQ

- EC50 [nM] of ADCP, HCC-78 cells [1]: 0.81 nM
- EC50 [nM] of ADCP, HeLa cells [1]: 0.78 nM
- Phagocytosis [%], 4 h ADCP, DK-MG cells [1]: 0%
- Phagocytosis [%], 4 h ADCP, HCC-78 cells [1]: 10.7%
- Phagocytosis [%], 4 h ADCP, HeLa cells [1]: 16.4%
- Kd [2]: 3.2 nM
- Kd [3]: 4.4 nM
- Kd [4]: 1.8 nM
- Kd [5]: 2.3 nM
- Kd [6]: 3.53 nM
- Kd [7]: 0.05 nM
- EC50 (read off the curve) [8]: ~0.05 nM
- EC50 (read off the curve) [9]: ~4 nM
- EC50 (read off the curve) [10]: ~2 nM
B1: anti-FOLR1 IgG1 IgAb_335 (antibody)
chain 1: not shown
chain 2: DIQLTQSPSSLSASVGDRVTITCSVSSSISSNNLHWYQQKPGKAPKPWIYGTSNLASGVPSRFSGSGSGTDYTFTISSLQPEDIATYYCQQWSSYPYMYTFGQGTKVEIKRTVAAPSVFIFPPSDEQLKSGTASVVCLLNNFYPREAKVQWKVDNALQSGNSQESVTEQDSKDSTYSLSSTLTLSKADYEKHKVYACEVTHQGLSSPVTKSFNRGEC
notes: IgG1 with farletuzumab-derived Fv domains and wild-type Fc; also called IgAb_355; anti-FOLR1 IgG1 antibody comprising wild-type Fc

- Kd [11]: 16.3 nM
- Kd [12]: 17.7 nM
- Kd [13]: 7.8 nM
- Kd [14]: 23.5 nM
- EC50 (read off the curve) [15]: ~8 nM
B2: scFv-IgAb_268 (CD123-1×CD16a1) (bispecific antibody)
heavy: QVQLQQSGAEVKKPGASVKVSCKASGYTFTDYYMKWVKQSHGKSLEWMGDIIPSNGATFYNQKFKGKATLTVDRSTSTAYMELSSLRSEDTAVYYCARSHLLRASWFAYWGQGTLVTVSSASTKGPSVFPLAPSSKSTSGGTAALGCLVKDYFPEPVTVSWNSGALTSGVHTFPAVLQSSGLYSLSSVVTVPSSSLGTQTYICNVNHKPSNTKVDKKVEPKSCDKTHTCPPCPAPEFEGGPSVFLFPPKPKDTLMISRTPEVTCVVVAVSHEDPEVKFNWYVDGVEVHNAKTKPREEQYNSTYRVVSVLTVLHQDWLNGKEYKCKVSNKALPAPIEKTISKAKGQPREPQVYTLPPSREEMTKNQVSLTCLVKGFYPSDIAVEWESNGQPENNYKTTPPVLDSDGSFFLYSKLTVDKSRWQQGNVFSCSVMHEALHNHYTQKSLSLSPGGGGGSGGGGSGGGGSGGGGSGGGGSGGGGSSYELTQPLSVSVALGQTARITCGGNNIGSKSVHWYQQKPGQAPVLVIYQDKKRPSGIPERFSGSNSGNTATLTISRAQAGDEADYYCQVWDDYIVLFGCGTKLTVLGGSGGSGGSGGSGGSGGSGGSQVQLVQSGAEVKKPGASVKVSCKASGYTFTNYYMQWVRQAPGQCLEWMGIINPSGGVTSYAQKFQGRVTMTRDTSTSTVYMELSSLRSEDTAVYYCARGSAYYYDFADYWGQGTLVTVSS
light: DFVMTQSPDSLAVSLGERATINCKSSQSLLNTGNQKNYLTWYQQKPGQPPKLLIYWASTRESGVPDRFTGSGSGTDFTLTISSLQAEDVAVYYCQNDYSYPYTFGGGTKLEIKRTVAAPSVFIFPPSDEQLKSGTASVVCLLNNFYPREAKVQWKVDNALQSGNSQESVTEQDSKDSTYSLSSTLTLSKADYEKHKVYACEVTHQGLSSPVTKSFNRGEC
notes: also called AFM28; CD123×CD16A scFv-IgAb_268

- Kd [11]: 37.6 nM
- Kd [12]: 56.2 nM
- Kd [13]: 18.7 nM
- Kd [14]: 37.9 nM
- EC50 (read off the curve) [15]: ~20 nM
B3: scFv-IgAb_148 (CD123-1×CD16a2) (bispecific antibody)
chain 1: QVQLQQSGAEVKKPGASVKVSCKASGYTFTDYYMKWVKQSHGKSLEWMGDIIPSNGATFYNQKFKGKATLTVDRSTSTAYMELSSLRSEDTAVYYCARSHLLRASWFAYWGQGTLVTVSSASTKGPSVFPLAPSSKSTSGGTAALGCLVKDYFPEPVTVSWNSGALTSGVHTFPAVLQSSGLYSLSSVVTVPSSSLGTQTYICNVNHKPSNTKVDKKVEPKSCDKTHTCPPCPAPEFEGGPSVFLFPPKPKDTLMISRTPEVTCVVVAVSHEDPEVKFNWYVDGVEVHNAKTKPREEQYNSTYRVVSVLTVLHQDWLNGKEYKCKVSNKALPAPIEKTISKAKGQPREPQVYTLPPSREEMTKNQVSLTCLVKGFYPSDIAVEWESNGQPENNYKTTPPVLDSDGSFFLYSKLTVDKSRWQQGNVFSCSVMHEALHNHYTQKSLSLSPGGGGGSGGGGSGGGGSGGGGSGGGGSGGGGSSYVLTQPSSVSVAPGQTATISCGGHNIGSKNVHWYQQRPGQSPVLVIYQDNKRPSGIPERFSGSNSGNTATLTISGTQAMDEADYYCQVWDNYSVLFGGGTKLTVLGGSGGSGGSGGSGGSGGSGGSQVQLVQSGAEVKKPGESLKVSCKASGYTFTSYYMHWVRQAPGQGLEWMGAIEPMYGSTSYAQKFQGRVTMTRDTSTSTVYMELSSLRSEDTAVYYCARGSAYYYDFADYWGQGTLVTVSS
chain 2: not shown
notes: also called CD123×CD16A scFv-IgAb_148; CD123/CD16A scFv-IgAb_148
